Assay results: IntAct's records for PubMed 35512704

B1: Speckle-type POZ protein (Homo sapiens), O43791 (parent)
chain: MSRVPSPPPPAEMSSGPVAESWCYTQIKVVKFSYMWTINNFSFCREEMGEVIKSSTFSSGANDKLKWCLRVNPKGLDEESKDYLSLYLLLVSCPKSEVRAKFKFSILNAKGEETKAMESQRAYRFVQGKDWGFKKFIRRDFLLDEANGLLPDDKLTLFCEVSVVQDSVNISGQNTMNMVKVPECRLADELGGLWENSRFTDCCLCVAGQEFQAHKAILAARSPVFSAMFEHEMEESKKNRVEINDVEPEVFKEMMCFIYTGKAPNLDKMADDLLAAADKYALERLKVMCEDALCSNLSVENAAEILILADLHSADQLKTQAVDFINYHASDVLETSGWKSMVVSHPHLVAEAYRSLASAQCPFLGPPRKRLKQS
partner: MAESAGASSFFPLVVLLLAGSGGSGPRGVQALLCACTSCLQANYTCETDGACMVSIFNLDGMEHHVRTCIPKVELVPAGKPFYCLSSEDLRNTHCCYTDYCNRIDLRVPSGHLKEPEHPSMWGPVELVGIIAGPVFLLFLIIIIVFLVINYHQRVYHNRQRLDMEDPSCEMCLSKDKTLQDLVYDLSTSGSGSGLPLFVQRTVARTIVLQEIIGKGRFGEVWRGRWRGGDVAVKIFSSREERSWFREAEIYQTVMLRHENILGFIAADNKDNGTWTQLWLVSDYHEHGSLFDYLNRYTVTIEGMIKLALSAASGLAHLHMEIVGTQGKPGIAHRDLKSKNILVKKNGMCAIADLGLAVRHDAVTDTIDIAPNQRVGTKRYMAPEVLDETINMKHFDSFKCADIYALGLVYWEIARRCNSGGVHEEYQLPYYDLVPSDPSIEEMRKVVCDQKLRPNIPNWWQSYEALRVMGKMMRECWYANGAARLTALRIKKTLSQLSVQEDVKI
B2: Mothers against decapentaplegic homolog 4 (Homo sapiens), Q13485 (parent)
chain: MDNMSITNTPTSNDACLSIVHSLMCHRQGGESETFAKRAIESLVKKLKEKKDELDSLITAITTNGAHPSKCVTIQRTLDGRLQVAGRKGFPHVIYARLWRWPDLHKNELKHVKYCQYAFDLKCDSVCVNPYHYERVVSPGIDLSGLTLQSNAPSSMMVKDEYVHDFEGQPSLSTEGHSIQTIQHPPSNRASTETYSTPALLAPSESNATSTANFPNIPVASTSQPASILGGSHSEGLLQIASGPQPGQQQNGFTGQPATYHHNSTTTWTGSRTAPYTPNLPHHQNGHLQHHPPMPPHPGHYWPVHNELAFQPPISNHPAPEYWCSIAYFEMDVQVGETFKVPSSCPIVTVDGYVDPSGGDRFCLGQLSNVHRTEAIERARLHIGKGVQLECKGEGDVWVRCLSDHAVFVQSYYLDREAGRAPGDAVHKIYPSAYIKVFDLRQCHRQMQQQAATAQAAAAAQAAAVAGNIPGPGSVGGIAPAISLSAAAGIGVDDLRRLCILRMSFVKGWGPDYPRQSIKETPCWIEIHLHRALQLLDEVLHTMPIADPQPLD
partner: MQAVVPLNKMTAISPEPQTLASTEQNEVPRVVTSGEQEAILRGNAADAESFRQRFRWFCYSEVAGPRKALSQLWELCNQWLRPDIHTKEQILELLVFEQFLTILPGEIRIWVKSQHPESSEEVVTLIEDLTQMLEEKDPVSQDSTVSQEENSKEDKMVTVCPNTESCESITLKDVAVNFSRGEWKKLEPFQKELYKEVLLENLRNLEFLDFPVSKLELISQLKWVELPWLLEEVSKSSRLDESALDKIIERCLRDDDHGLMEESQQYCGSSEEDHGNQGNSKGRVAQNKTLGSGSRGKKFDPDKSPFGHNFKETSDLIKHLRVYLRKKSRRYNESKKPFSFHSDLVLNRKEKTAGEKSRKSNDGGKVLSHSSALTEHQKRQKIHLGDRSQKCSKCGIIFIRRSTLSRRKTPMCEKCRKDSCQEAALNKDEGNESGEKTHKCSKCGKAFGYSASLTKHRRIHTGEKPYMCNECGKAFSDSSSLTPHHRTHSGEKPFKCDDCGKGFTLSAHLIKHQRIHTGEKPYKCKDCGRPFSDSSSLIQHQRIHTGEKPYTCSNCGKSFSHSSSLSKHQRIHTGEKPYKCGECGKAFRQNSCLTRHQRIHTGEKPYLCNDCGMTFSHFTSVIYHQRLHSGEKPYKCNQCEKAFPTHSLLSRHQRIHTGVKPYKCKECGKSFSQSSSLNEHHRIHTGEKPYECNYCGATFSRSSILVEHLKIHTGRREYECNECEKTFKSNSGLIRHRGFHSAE
B3: Mothers against decapentaplegic homolog 4 (Homo sapiens), Q13485 (parent)
chain: B2 chain
partner: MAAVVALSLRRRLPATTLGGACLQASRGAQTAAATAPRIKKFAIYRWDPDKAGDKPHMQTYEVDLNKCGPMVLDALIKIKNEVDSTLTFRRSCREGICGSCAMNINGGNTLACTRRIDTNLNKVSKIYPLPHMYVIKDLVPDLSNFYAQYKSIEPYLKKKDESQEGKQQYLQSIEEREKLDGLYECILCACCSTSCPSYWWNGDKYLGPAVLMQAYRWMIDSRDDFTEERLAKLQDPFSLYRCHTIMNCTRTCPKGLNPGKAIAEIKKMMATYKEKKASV
B4: Mothers against decapentaplegic homolog 4 (Homo sapiens), Q13485 (parent)
chain: B2 chain
partner: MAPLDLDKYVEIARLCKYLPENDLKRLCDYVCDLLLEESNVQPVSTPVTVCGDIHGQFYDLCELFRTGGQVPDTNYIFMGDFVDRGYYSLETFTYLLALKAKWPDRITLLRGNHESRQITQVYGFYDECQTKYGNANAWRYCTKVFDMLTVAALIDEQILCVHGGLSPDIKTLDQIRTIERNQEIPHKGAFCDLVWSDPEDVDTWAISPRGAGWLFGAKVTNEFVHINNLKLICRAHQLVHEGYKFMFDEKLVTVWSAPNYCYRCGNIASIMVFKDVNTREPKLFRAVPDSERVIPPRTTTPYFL

Variants of: B1
Details: with acv1b_human ACVR1B

Row | effect of a mutation on the interaction | Variant
1 | with no effect | MSRVPSPPPPAEMSSGPVAESWCYTQIKVVKFSYMWTINNFSFCREEMGEVIKSSTFSSGANDKLKWCLRVNPKGLDEESKDYLSLYLLLVSCPKSEVRAKFKFSILNAKGEETKAMESQRAYRFVQGKDWGLKKFIRRDFLLDEANGLLPDDKLTLFCEVSVVQDSVNISGQNTMNMVKVPECRLADELGGLWENSRFTDCCLCVAGQEFQAHKAILAARSPVFSAMFEHEMEESKKNRVEINDVEPEVFKEMMCFIYTGKAPNLDKMADDLLAAADKYALERLKVMCEDALCSNLSVENAAEILILADLHSADQLKTQAVDFINYHASDVLETSGWKSMVVSHPHLVAEAYRSLASAQCPFLGPPRKRLKQS [F133L]

Variants of: B1
Details: with acv1b_human ACVR1B
Remark: another data set of the same source

Row | effect of a mutation on the interaction | Variant
2 | with no effect | MSRVPSPPPPAEMSSGPVAESWCYTQIKVVKFSYMWTINNFSFCREEMGEVIKSSTFSSGANDKLKWCLRVNPKGLDEESKDYLSLYLLLVSCPKSEVRAKFKFSILNAKGEETKAMESQRAYRFVQGKDWGVKKFIRRDFLLDEANGLLPDDKLTLFCEVSVVQDSVNISGQNTMNMVKVPECRLADELGGLWENSRFTDCCLCVAGQEFQAHKAILAARSPVFSAMFEHEMEESKKNRVEINDVEPEVFKEMMCFIYTGKAPNLDKMADDLLAAADKYALERLKVMCEDALCSNLSVENAAEILILADLHSADQLKTQAVDFINYHASDVLETSGWKSMVVSHPHLVAEAYRSLASAQCPFLGPPRKRLKQS [F133V]

Variants of: B2
Details: with zn483_human ZNF483, Q8TF39

Row | effect of a mutation on the interaction | Variant
3 | with no effect | R361H

Variants of: B2
Details: with zn483_human ZNF483, Q8TF39
Remark: another data set of the same source

Row | effect of a mutation on the interaction | Variant
4 | with no effect | R361C

Variants of: B3
Details: with sdhb_human SDHB

Row | effect of a mutation on the interaction | Variant
5 | with no effect | G386D

Variants of: B3
Details: with sdhb_human SDHB
Remark: another data set of the same source

Row | effect of a mutation on the interaction | Variant
6 | increasing interaction strength | G386D

Variants of: B3
Details: with sdhb_human SDHB
Remark: another data set of the same source

Row | effect of a mutation on the interaction | Variant
7 | with no effect | R361C

Variants of: B4
Details: with ppp6_human PPP6C

Row | effect of a mutation on the interaction | Variant
8 | with no effect | G386D

Variants of: B4
Details: with ppp6_human PPP6C
Remark: another data set of the same source

Row | effect of a mutation on the interaction | Variant
9 | increasing interaction strength | G386D
